The target in experiment [1] is BirA′ (protein encoded by Clostridium acetobutylicum gene Ca 0212), purified (Clostridium acetobutylicum (strain ATCC 824)). Put plainly: SEC. For orientation: SEC sorts molecules by how far they enter the pores of the column.
Another experiment has as its target T1, BplA (Ca 0589) (Clostridium acetobutylicum, UniProt Q97LH2).
T1 sequence (Q97LH2 1-270): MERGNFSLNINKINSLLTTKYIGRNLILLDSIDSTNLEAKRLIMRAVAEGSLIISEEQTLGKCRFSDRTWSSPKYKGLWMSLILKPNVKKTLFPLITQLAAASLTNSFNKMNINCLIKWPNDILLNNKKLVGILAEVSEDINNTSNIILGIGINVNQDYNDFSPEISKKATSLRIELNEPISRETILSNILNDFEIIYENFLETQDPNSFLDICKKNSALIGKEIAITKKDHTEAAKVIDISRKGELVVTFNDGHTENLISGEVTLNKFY
The experiment is described as follows: TLC of […]Bio-5′-AMP. The experiment is classed as biochemical. Particulars: 25 uM biotin, 5 uM ATP, 5.5 mM MgCl2, pH 8.0, room temperature; acceptor B. subtilis AccB-86.

The term stoichiometry N denotes a count of units in the complex or per binding partner.

Consider “BirA′ (protein encoded by Clostridium acetobutylicum gene Ca 0212), purified (natural protein)”, for which, in experiment [1], the stoichiometry N turned out to be 2.
With `O=C(O)CCCC[C@@H]1SC[C@@H]2NC(=O)N[C@@H]21` [biotin], the “TLC of [32P]Bio-5′-AMP; AccB-86 native gel shift; MS/MS of product” value on BplA (Ca 0589) is “In reactions with BplA, formation of the Bio-5′-AMP intermediate was detected upon biotin addition”.

Values taken from article PMC9048407 (Molecular microbiology, 2021).
